The values below come from article PMC12399645 (Frontiers in Immunology, 2025).

The chains are these.
B1: KBA2401 (antibody, V domains shown)
VH: EVQLVQSGAEVKKPGESLKISCKGSGYTFSYFWIGWVRQMPGKGLEWMGIIYPGDSDTRYSPSFQGQVTISADKSISTAYLQWSSLKASDTAMYYCARVGIEMATTYFGFWGQGTMVTVSS
VL: SYVLTQPPSVSVAPGQTARITCGGNNIGSKSVHWYQQRPGQAPVLVVYDDSDRPSEIPERFSGSSSGNTATLTISTVEAGDEADYYCQVWDSSTDHPGVFGGGTKLTVL
notes: copies: 2 + 2
B2: KBA2403 (antibody, V domains shown)
VH: EVQLVESGGGLVQPGGSLRLSCVASGIIVSRNYMNWVRQAPGKGLEWVSVLYSGGTTEYADSVKGRFTISRDNSKNTLFLQMSSLRVEDTAVYFCAREGYGMDVWGQGATVTVSS
VL: DIQLTQSPSFLSASVGDRVTITCRAGQGISTYLAWYQQKPGKAPKLLIYSASTLQSGVPSRFSGSGSGTEFTLTISSLQPEDFATYYCQQLNNYPPAFGGGTKVEIK
notes: IgG1 format; copies: 2 + 2
B3: KBA2402 (antibody, V domains shown)
VH: EVQLVESGGGLVQPGRSLGLSCTTSGFTFGDFAMSWFRQAPGKGLEWVGFIRSKAYGGATQYAASVKGRFTISRDDSKSIAYLQMNSLKTEDTAVYYCTRAGEMATTVNRQFDYWGQGTLVTVSS
VL: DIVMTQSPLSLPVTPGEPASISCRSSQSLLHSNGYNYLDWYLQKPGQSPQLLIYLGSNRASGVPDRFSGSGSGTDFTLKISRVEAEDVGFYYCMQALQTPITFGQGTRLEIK
notes: copies: 2 + 2
B4: KBA2404 (antibody, V domains shown)
VH: EVQLVESGGGLVQPGGSLRLSCAASGFTVSSNYMSWVRQAPGKGLECVSVIYSGGSTYYGDSVKGRFTISRDNSKNRLYLQMHSLRAEDTAVYFCARIVSDAFDIWGQGTMVTVSS
VL: DIQMTSLLSPLSASVGDRVTITCRASQNINRWLAWYQQKPGKAPKLLIYMASNLESGVPSRFSGSGSGTEFSLTISSLQPDDLATYYCQQYNSYWTSYTFGQGTKLEIK
notes: IgG1 format; copies: 2 + 2
B5: KBA2402_EVO17 (antibody, V domains shown)
VH: B3 VH
VL: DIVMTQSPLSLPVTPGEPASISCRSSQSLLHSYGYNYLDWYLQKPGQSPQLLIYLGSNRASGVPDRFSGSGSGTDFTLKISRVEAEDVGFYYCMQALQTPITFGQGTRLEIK
notes: copies: 2 + 2
B6: KBA2402_EVO14 (antibody, V domains shown)
VH: B3 VH
VL: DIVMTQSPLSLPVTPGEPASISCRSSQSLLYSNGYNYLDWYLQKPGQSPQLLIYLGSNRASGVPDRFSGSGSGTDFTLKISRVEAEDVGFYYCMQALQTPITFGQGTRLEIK
notes: copies: 2 + 2

In the first assay the target is SARS-CoV-2 spike trimer protein, Wild-type (SARS-CoV-2, original Wild-type …, UniProt P0DTC2, biotin on the Avi-tag (BirA ligase)). Description: ELISA. Conditions: both partners purified. On the technique in general: An ELISA detects its analyte on a solid surface through an enzyme-linked reagent.
B1: the binding result is recorded as “binds”. For B2, the binding result is recorded as “binds”. On the same count and under the same terms, as for B3, the entry is “binds”; as for B4, “binds”.

The same assay, now with this note: one partner purified.
Consider B5, for which the binding result is recorded as “binds”. Still for that read-out and setting: as for B6, the entry is “binds”.
